Measured values as given in US20130217572A1, “SPECIFIC DELIVERY OF AGROCHEMICALS” (VRIJE UNIVERSITEIT BRUSSEL, priority 2010, published 2013).

T1: potato lectin (Sigma) (potato, UniProt Q9S8M0 23-323)
T1 construct: Bought glycoprotein, coated on ELISA plates
T1 sequence (looked up): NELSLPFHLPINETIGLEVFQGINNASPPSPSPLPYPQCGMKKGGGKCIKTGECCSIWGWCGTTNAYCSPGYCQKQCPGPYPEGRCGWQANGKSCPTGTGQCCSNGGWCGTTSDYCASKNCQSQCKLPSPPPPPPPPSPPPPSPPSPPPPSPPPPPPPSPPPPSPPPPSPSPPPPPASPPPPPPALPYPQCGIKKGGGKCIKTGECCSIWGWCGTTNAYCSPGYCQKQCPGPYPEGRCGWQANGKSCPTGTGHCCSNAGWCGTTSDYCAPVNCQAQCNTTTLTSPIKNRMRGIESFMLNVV


Tests used:
potato lectin (Sigma) [1] = biological target: T1, potato lectin (Sigma); assay: VHH-coupled lambda-cyhalothrin microcapsules retained on potato lectin-coated wells; 20% surface coverage
potato lectin (Sigma) [2] = biological target: T1, potato lectin (Sigma); assay: VHH-coupled lambda-cyhalothrin microcapsules retained on potato lectin-coated wells; 100% surface coverage
potato lectin (Sigma) [3] = biological target: T1, potato lectin (Sigma); assay: VHH-coupled Uvitex OB microcapsules retained on potato lectin-coated wells; 4% surface coverage
potato lectin (Sigma) [4] = biological target: T1, potato lectin (Sigma); assay: VHH-coupled lambda-cyhalothrin microcapsules retained on potato lectin-coated wells; 4% surface coverage
potato lectin (Sigma) [5] = biological target: T1, potato lectin (Sigma); assay: VHH-coupled Uvitex microcapsules retained on potato lectin-coated wells; 100% surface coverage
potato lectin (Sigma) [6] = biological target: T1, potato lectin (Sigma); assay: VHH-coupled Uvitex microcapsules retained on potato lectin-coated wells; 20% surface coverage
potato lectin (Sigma) [7] = biological target: T1, potato lectin (Sigma); assay: VHH-coupled Uvitex OB microcapsules retained on potato lectin-coated wells; 100% surface coverage
potato lectin (Sigma) [8] = biological target: T1, potato lectin (Sigma); assay: VHH-coupled Uvitex microcapsules retained on potato lectin-coated wells; 4% surface coverage
potato lectin (Sigma) [9] = biological target: T1, potato lectin (Sigma); assay: VHH-coupled Uvitex OB microcapsules retained on potato lectin-coated wells; 20% surface coverage
unrelated antigens [10] = assay: VHH-coupled Uvitex microcapsules retained on wells coated with unrelated antigen; 4% surface coverage
unrelated antigens [11] = assay: VHH-coupled Uvitex microcapsules retained on wells coated with unrelated antigen; 100% surface coverage
unrelated antigens [12] = assay: VHH-coupled Uvitex microcapsules retained on wells coated with unrelated antigen; 20% surface coverage
potato lectin (Sigma) [13] = biological target: T1, potato lectin (Sigma); assay: VHH-coupled Uvitex microcapsules on potato lectin-coated wells; 25-fold less microcapsules applied
Procedure: An ELISA-like assay was performed using high bind half area microplates (Greiner Bio-One) coated with 5 μg/well potato lectin. Control wells included blank wells or wells coated with unrelated antigens. Plates were washed three times with PBS with 0.05%-TWEEN®-20 and blocked with 5% skimmed milk in PBS for 1 to 2 hours. VHH-coupled Uvitex-containing microcapsules were diluted to appropriate densities in 1% skimmed milk in PBS with 0.05%-TWEEN®-20. Five-fold serial dilution series were prepared and allowed to bind to the surface to compare binding of microcapsules coupled with monovalent or bivalent VHH. Microcapsules were added to the antigen-coated or control wells and allowed to bind for 1 hour. Unbound microcapsules were removed by washing five times with PBS with 0.05%-TWEEN®-20. The bottoms of ELISA plate wells were analyzed for bound microcapsules on a macrozoom microscope system (Nikon). Microcapsules were counted using Volocity image analysis software (Perkin Elmer). A DAPI filter was used to visualize Uvitex microcapsules.
The surface area of microcapsules with coupled bivalent VHH was 15-fold above the surface area of blank microcapsules applied at this microcapsule density while the surface area of microcapsules with monovalent VHH was only six-fold above the surface area of blank microcapsules applied at this microcapsule density. […]

Molecule | counts of bound microcapsules (microcapsules) (potato lectin (Sigma) [1]) | counts of bound microcapsules (microcapsules) (potato lectin (Sigma) [2]) | area of bound microcapsules (potato lectin (Sigma) [3]) | counts of bound microcapsules (microcapsules) (potato lectin (Sigma) [4]) | surface area of bound microcapsules (potato lectin (Sigma) [5]) | surface area of bound microcapsules (potato lectin (Sigma) [6]) | area of bound microcapsules (potato lectin (Sigma) [7]) | surface area of bound microcapsules (potato lectin (Sigma) [8]) | area of bound microcapsules (potato lectin (Sigma) [9]) | surface area of bound microcapsules (unrelated antigens [10]) | surface area of bound microcapsules (unrelated antigens [11]) | surface area of bound microcapsules (unrelated antigens [12]) | fold of surface area above blank microcapsules (potato lectin (Sigma) [13])
unrelated VHH | 709 | 828 | 7.53 | 348 | 142 | 43.5 | 16.7 | 19.2 | 35.4 | – | – | – | –
Bivalent VHH 3E6 (VHH, Built from the general description of the bivalent constructs (two VHH in tandem); Tested covalently coupled to Uvitex microcapsules) QVQLQESGGGLVQPGGTLSLSCAASGFNVRWYGMGWFRQAPGKEREGVACISALQETTAYADSVKGRFTLSRDNPKNTLSLQMNNLQPEDTGVYYCATTDCDDSSRMTYTSYLGQGTQVTVSSGGGGSGGGSQVQLQESGGGLVQPGGTLSLSCAASGFNVRWYGMGWFRQAPGKEREGVACISALQETTAYADSVKGRFTLSRDNPKNTLSLQMNNLQPEDTGVYYCATTDCDDSSRMTYTSYLGQGTQVTVSSAAAEQKLISEEDLNGAAHHHHHH | – | – | – | – | – | – | – | – | – | 15 | 45.7 | 22.1 | 15 fold
